From publication PMC6119766, “Terminal Regions Confer Plasticity to the Tetrameric Assembly of Human HspB2 and HspB3” (Journal of Molecular Biology, 2018) come the findings set out here.

To fix the notation:
B1: human HspB2 (natural protein, UniProt Q16082 1-182, looked up)
chain: MSGRSVPHAHPATAEYEFANPSRLGEQRFGEGLLPEEILTPTLYHGYYVRPRAAPAGEGSRAGASELRLSEGKFQAFLDVSHFTPDEVTVRTVDNLLEVSARHPQRLDRHGFVSREFCRTYVLPADVDPWRVRAALSHDGILNLEAPRGGRHLDTEVNEVYISLLPAPPDPEEEEEAAIVEP
notes: human HspB2 (small heat shock protein B2); Made together with HspB3 from one pET3a construct; also called HsB2; HspB2_Human; source: E. coli BL21(DE3), pET3a-HspB2/B3, purified (DEAE-Sepharose, Source 15Q)
B3: human HspB3 (wild type) (natural protein, UniProt Q12988 1-150, looked up)
chain: MAKIILRHLIEIPVRYQEEFEARGLEDCRLDHALYALPGPTIVDLRKTRAAQSPPVDSAAETPPREGKSHFQILLDVVQFLPEDIIIQTFEGWLLIKAQHGTRMDEHGFISRSFTRQYKLPDGVEIKDLSAVLCHDGILVVEVKDPVGTK
notes: human HspB3 (small heat shock protein B3); HspB3 could not be purified alone; it is obtained only in complex with HspB2; also called HsB3; HspB3_Human; source: E. coli BL21(DE3), pET3a-HspB2/B3 wild type, purified with HspB2 (DEAE-Sepharose, Source 15Q)
B4: engineered human HspB3 with the C-terminal extension of human HspB2 (HspB3 + B2tail) (other)
chain: MAKIILRHLIEIPVRYQEEFEARGLEDCRLDHALYALPGPTIVDLRKTRAAQSPPVDSAAETPPREGKSHFQILLDVVQFLPEDIIIQTFEGWLLIKAQHGTRMDEHGFISRSFTRQYKLPDGVEIKDLSAVLCHDGILVVEVKDPVGTPEEEEEAAIVEP
notes: human HspB3 without its C-terminal lysine, which was replaced by the HspB2 tail; last 12 amino acids of human HspB2, residues 171-182; The results say the tail was added to the C-terminus; the methods say it replaced the C-terminal lysine (the reverse primer fits the methods); also called engineered HspB3 mutant; engineered mutant human HspB3; source: E. coli BL21(DE3), pET3a-HspB2/B3 mutant, …
B5: rat HspB2 (natural protein, UniProt O35878 1-182, looked up)
chain: MSGRTVPHAHPATAEYEFANPSRLGEQRFGEGLLPEEILTPTLYHGYYVRPRAARAGEGGRAGASELRLSEGKFQAFLDVSHFTPDEVTVRTVDNLLEVSARHPQRLDRHGFVSREFCRTYVLPADVDPWRVRAALSHDGILNLEAPRGGRHLDTEVNEVYISLLPAPPDPEEEEEVARVEP
notes: rat HspB2, wild type; C-terminal residues E172 to P182 seen by NMR; also called RnB2; HspB2_Rat
B6: rat HspB3 (natural protein, UniProt Q9QZ58 1-152, looked up)
chain: MAKIILRHLIETPVRYQEEFEARGLEDCRLDHALYALPGPTIEDLRKARGTPKALAEDSDSAETPPGEGKSRFQILLDVVQFLPEDIIIQTFEGWLLIKAQHGTRMDEHGFISRSFTRQYKLPDGVETKDLSAILCHDGILVVEVKDPLETK
notes: rat HspB3, wild type; ultimate C-terminal residue K152; also called RnB3; HspB3_Rat

Data set [1] addresses B4. Nature of the data set: SEC + native MS; HspB2/B3 complexes; Superdex 200 10/300 fractions nanoelectrosprayed at 10 μM in 200 mM ammonium acetate (pH 6.9). To be noted: both partners purified.
For the data set “human HspB3 (wild type)”, the target named is B3. The data set is described as above. To be noted: both partners purified.
Data set [2] deals with the molecule itself. Put plainly: crystal structure; hanging drop at 21 °C; 3.9 Å; space group P3(1); three hetero-tetramers (12 chains) in the asymmetric unit.
Data set [3] concerns the molecule itself. Nature of the data set: SEC + native MS; HspB2/B3 complexes; Superdex 200 10/300 fractions nanoelectrosprayed at 10 μM in 200 mM ammonium acetate (pH 6.9).
For the data set “rat HspB2”, the target named is B5. The description is as above. As to conditions: both partners purified.
The target in data set [4] is B1. Put plainly: crystal structure; hanging drop at 21 °C; 3.9 Å; space group P3(1); three hetero-tetramers (12 chains) in the asymmetric unit. To be noted: both partners purified.
The target of the data set “rat HspB3” is B6. Put plainly: SEC + native MS; HspB2/B3 complexes; Superdex 200 10/300 fractions nanoelectrosprayed at 10 μM in 200 mM ammonium acetate (pH 6.9). As to conditions: both partners purified.
The target of data set [5] is B1. The data set is described as above. To be noted: both partners purified.

In the case of B1, the “stoichiometry N” value (in data set [1]; in the data set with human HspB3 (wild type)) was 3 HspB2 per HspB3 in each case. Moreover, the binding result in data set [2] was “binds”.

B2: rat HspB2/B3 hetero-tetramer (complex)
chain 1: MSGRTVPHAHPATAEYEFANPSRLGEQRFGEGLLPEEILTPTLYHGYYVRPRAARAGEGGRAGASELRLSEGKFQAFLDVSHFTPDEVTVRTVDNLLEVSARHPQRLDRHGFVSREFCRTYVLPADVDPWRVRAALSHDGILNLEAPRGGRHLDTEVNEVYISLLPAPPDPEEEEEVARVEP
chain 2: MAKIILRHLIETPVRYQEEFEARGLEDCRLDHALYALPGPTIEDLRKARGTPKALAEDSDSAETPPGEGKSRFQILLDVVQFLPEDIIIQTFEGWLLIKAQHGTRMDEHGFISRSFTRQYKLPDGVETKDLSAILCHDGILVVEVKDPLETK
notes: rat HspB2, as m5; rat HspB3, as m6; The protomer that forms the higher oligomers; also called wild-type rat HspB2/B3; copies: 3 + 1
Turning to B2, the “stoichiometry N” value in data set [3] is 8 to 24 chains (the hetero-tetramer has 4).

Turning to B3, in the data set with rat HspB2, the binding result is “binds”.

For B4, the binding result with human HspB2 [4] was “binds”.

Turning to B5, in the data set with rat HspB3, the “stoichiometry N” value was 3 HspB2 per HspB3.

As for B6, the binding result with human HspB2 [5] is recorded as “binds”.
